Publication PMC8165985

Biological target: T1, YycF (Staphylococcus aureus (ATCC29213?)) (UniProt Q9RDT5)
T1 sequence: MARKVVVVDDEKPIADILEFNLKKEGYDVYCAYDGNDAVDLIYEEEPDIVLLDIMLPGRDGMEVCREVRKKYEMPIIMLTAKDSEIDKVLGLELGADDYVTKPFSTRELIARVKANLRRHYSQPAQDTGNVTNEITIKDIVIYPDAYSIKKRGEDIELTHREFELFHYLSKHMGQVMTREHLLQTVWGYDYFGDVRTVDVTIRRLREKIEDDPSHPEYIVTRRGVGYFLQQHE
Assay: EMSA

Sequence	binding
CTGAAAATTAATCACACTATGTTACAGGAAAATTAAGTTGCAATTACAAATATTTCCGTTTAATTATAACAACAATCTATTGCAAATTAAAATACTATCAATTACCATATGGCTTACAACCTAACTAACGAAAGGTAGGTAAAG (double strand) [icaA promoter region]	binds
GCGCAATTTGGTGAAGTTTGATAGATGATACATTCTATTAAACTTCCTTTTTTTATGTCTTTTTTTACCTAATTGTTAAGAGGTTTTGCACTAATGGCACTTAATATAAGGAAGATAGCCGCATAACGAGCAGTATATATCAAATACATTTCAAAAAAAGCTGATTTCTATCAAATAATGAATAGTAATCAGCTTTTTCACATTGCCTAAGGACTTTATGCCCTAGGTTTATATATCAC (double strand) [sarA promoter region]	binds
